Read-outs that look alike come from different tables or passages of the source.
T1: recombinant human IL-6R-extracellular domain (ECD) (human, UniProt P08887 20-365)
T1 construct: extracellular domain; also called IL-6R-ECD
T1 sequence (looked up): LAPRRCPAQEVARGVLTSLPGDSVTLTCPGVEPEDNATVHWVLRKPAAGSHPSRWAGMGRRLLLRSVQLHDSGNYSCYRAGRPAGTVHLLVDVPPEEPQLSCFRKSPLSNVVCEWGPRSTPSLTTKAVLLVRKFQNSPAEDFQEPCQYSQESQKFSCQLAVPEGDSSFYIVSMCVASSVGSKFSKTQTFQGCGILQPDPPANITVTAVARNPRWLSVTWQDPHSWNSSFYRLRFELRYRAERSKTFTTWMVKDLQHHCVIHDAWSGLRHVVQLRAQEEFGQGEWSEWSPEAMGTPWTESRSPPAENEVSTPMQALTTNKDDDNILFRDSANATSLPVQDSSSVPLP

T2: IL-6R on human myeloma U266B1 cells (human, UniProt P08887 20-468)
T2 construct: whole, on cells; Also used as target of the cell-based functional assays (TF-1 proliferation); also called IL-6R on U266B1 cells expressing IL-6R; cell-surface IL-6R
T2 sequence (looked up): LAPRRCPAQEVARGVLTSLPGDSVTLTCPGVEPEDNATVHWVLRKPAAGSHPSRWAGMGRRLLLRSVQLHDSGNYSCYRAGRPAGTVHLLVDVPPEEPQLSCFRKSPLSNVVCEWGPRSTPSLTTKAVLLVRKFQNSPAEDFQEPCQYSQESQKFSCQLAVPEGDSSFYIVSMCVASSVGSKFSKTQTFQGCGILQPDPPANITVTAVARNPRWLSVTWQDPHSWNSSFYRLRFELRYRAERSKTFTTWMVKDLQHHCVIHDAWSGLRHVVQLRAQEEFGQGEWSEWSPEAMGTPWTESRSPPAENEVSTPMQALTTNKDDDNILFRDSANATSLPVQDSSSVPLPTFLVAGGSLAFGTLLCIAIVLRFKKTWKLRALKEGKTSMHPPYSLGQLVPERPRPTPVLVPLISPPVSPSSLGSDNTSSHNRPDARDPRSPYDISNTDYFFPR


How the values were obtained:
[1] = target: T1, recombinant human IL-6R-extracellular …; assay: SPR
[2] = target: T2, IL-6R on human myeloma U266B1 cells; assay: FACS binding to IL-6R on U266B1 cells
[3] = target: T1, recombinant human IL-6R-extracellular …; assay: receptor-ligand ELISA: blocking of IL-6 binding to IL-6R
[4] = target: T1, recombinant human IL-6R-extracellular …; assay: direct ELISA on IL-6R
[5] = target: T1, recombinant human IL-6R-extracellular …; assay: receptor-ligand ELISA, reference Tocilizumab
[6] = target: T2, IL-6R on human myeloma U266B1 cells; assay: cell-based or functional assay
[7] = target: T1, recombinant human IL-6R-extracellular …; assay: receptor-ligand ELISA, blocking of IL-6 binding to IL-6R
[8] = target: T1, recombinant human IL-6R-extracellular …; assay: as above; remark: listed apart in the source
[9] = target: T2, IL-6R on human myeloma U266B1 cells; assay: FACS binding to IL-6R on U266B1 cells; remark: listed apart in the source
[10] = target: T2, IL-6R on human myeloma U266B1 cells; assay: cell-based or functional assay; remark: listed apart in the source
[11] = target: T1, recombinant human IL-6R-extracellular …; assay: direct ELISA on IL-6R; remark: listed apart in the source
[12] = target: T2, IL-6R on human myeloma U266B1 cells; assay: cell-based or functional assay; remark: listed apart in the source
IL-6R on TF-1 cells = IL-6R on TF-1 cells (Homo sapiens); assay: cell-based or functional assay
[13] = target: T2, IL-6R on human myeloma U266B1 cells; assay: FACS on U266B1 cells

| Binder | Kd [1] | koff [1] | kon [1] | EC50 [2] | IC50 (read off the curve) [3] | EC50 [4] | fold potency against Tocilizumab in ligand-receptor binding assays [5] | TF-1 proliferation IC50 [6] | IC50 [7] | IC50 [8] | EC50 [9] | TF-1 proliferation IC50 [10] | EC50 [11] | inhibition of STAT3 phosphorylation, fold as compared to tocilizumab (hPM-1) [12] | IC50 (read off the curve), IL-6 mediated TF-1 proliferation (IL-6R on TF-1 cells) | EC50 (read off the curve) [13] |
| --- | --- | --- | --- | --- | --- | --- | --- | --- | --- | --- | --- | --- | --- | --- | --- | --- |
| humanized clone #36 anti-IL-6R antibody (antibody, human IgG1, kappa, V domains shown, Humanized VH cloned into human IgG1 CH vector, humanized VK into human CK vector; also called Humanized 36; humanized 36) VH: EVQLVESGGGLVQPGGSLRLSCAVSGFSLSSYYMSWVRQAPGKGLEWIGITTTSTNTFYASWAKGRFTISKDSSKNTVYLQMNSPRAEDTAVYFCARYGGNSAYYAFSLWGQGTLVTVSS VL: DIQMTQSPSSLSASVGDRVTISCQSSQSVYNNNYLAWFQQKPGKPPKLLIYGASNLASGVPSRFSGSGSGTQFTLTISSLQPEDVATYYCQGYYNGVIFVFGGGTKVEIKR | 0.526 nM | 0.00031 s⁻¹ | 589000 M⁻¹ s⁻¹ | 0.145 µg/mL | ~0.2 µg/mL | 0.0216 µg/mL | 6 fold | 0.181 µg/mL | 0.39 µg/mL |  |  |  |  |  |  |  |
| humanized clone #51 anti-IL-6R antibody (antibody, human IgG1, kappa, V domains shown, Humanized VH cloned into human IgG1 CH vector, humanized VK into human CK vector; also called Humanized 51; humanized 51) VH: EVQLVESGGGLVQPGGSLRLSCAASGFDISSYSLQWVRQSPGKGLEYIGFIRPDGSAHYATWAKGRFTISKDSSKNTVYLQMNSLRAEDTAVYFCARDDISSDYFPNLWGPGTLVTVSS VL: DIQMTQSPSTLSASVGDRVTISCQASESVYNKNNLAWYQQKPGKPPKLLIYDASDLASGVPSRFSGSGSGTQFTLTISSLQPDDFATYYCAGGGSGNVYDFGGGTKVEIKR | 1.29 nM | 0.0004 s⁻¹ | 311000 M⁻¹ s⁻¹ | 0.356 µg/mL |  | 0.0169 µg/mL |  | 1.06 µg/mL | 0.26 µg/mL |  |  |  |  |  |  |  |
| clone 21 rabbit anti-IL-6R antibody (antibody, V domains shown) VH: QSVEESGGRLVTPGTPLTLTCTVSGIDLSNYYMSWVRQAPGKGLEWIGISSTTSNTFYASWAKGRFTISKTSATVDLKITSPTTEDTATYFCARYGGNSAYYAFSLWGQGTLVTVSS VL: AVVLTQTPSPVSAAVGGTVTINCQSSQSVYNNNYLAWYQQKPGQPPKLLIYGASNLASGVPSRFKGSGSGTQFTLTISEVQCDDAATYYCQGYYNGVIFVFGGGTEVVVK |  |  |  |  |  |  |  |  |  | 0.47 µg/mL | 0.0326 µg/mL | 0.11 µg/mL | 0.04 µg/mL |  |  |  |
| clone 36 rabbit anti-IL-6R antibody (antibody, V domains shown) VH: QSVEESGGRLVTPGTPLTLTCTVSGFSLSSYYMSWVRQAPGKGLEWIGITTTSTNTFYASWAKGRFTISKTSATVDLKITSPTIEDTATYFCARYGGNSAYYAFSLWGQGTLVTVSS VL: QVLTQTASSVSAAVGGTVTISCQSSQSVYNNNYLAWFQQKPGQPPKLLIYGASNLASGVPSRFKGSGSGTQFTLTISDLECDNAATYYCQGYYNGVIFVFGGGTEVVVK | 0.635 nM | 0.000342 s⁻¹ | 538000 M⁻¹ s⁻¹ | 0.0776 µg/mL | ~0.2 µg/mL | 0.0595 µg/mL |  | 0.163 µg/mL | 0.235 µg/mL | 0.23 µg/mL | 0.0203 µg/mL | 0.04 µg/mL | 0.02 µg/mL | > 10 fold | ~0.1 µg/mL |  |
| clone 51 rabbit anti-IL-6R antibody (antibody, V domains shown) VH: QSVEESGGRLVTPGTPLTLTCTASGFDISSYSLQWVRQSPGKGLEYIGFIRPDGSAHYATWAKGRFTISKTSSTTVDLKMTSLTTEDTATYFCARDDISSDYFPNLWGPGTLVTVSS VL: QVLTQTPSPVSAAVGGTVTISCQASESVYNKNNLAWYQQKPGQPPKLLIYDASDLASGVSSRFKGSGSGTQFTLTISDLECADAATYYCAGGGSGNVYDFGGGTEVVVK | 1.17 nM | 0.000463 s⁻¹ | 393000 M⁻¹ s⁻¹ | 0.164 µg/mL | ~0.3 µg/mL | ~0.03 µg/mL |  | 0.154 µg/mL | 0.288 µg/mL | 0.8 µg/mL | 0.0687 µg/mL | 0.02 µg/mL | 0.03 µg/mL |  |  | ~0.2 µg/mL |
| clone 5 rabbit anti-IL-6R antibody (antibody, V domains shown) VH: QSLEESGGRLVTPGTPLTLTCTVSGIDLSRYWMSWVRQAPGKGLEWIGMISGGNTWYASWAKGRFTISKTSTTVDLKITSPTTEDTATYFCARGIDTGIATTFNLWGPGTLVTVSS VL: AQVLTQTPSSVSAAVGGTVTISCQSSQSVYNNNRLSWFQQKPGQPPKLLIYYASTLASGVPSRFKGSGSGTQFTLTISDLECDDAATYYCQGYYSGVINVFGGGTEVVVK | 0.523 nM | 0.000279 s⁻¹ | 533000 M⁻¹ s⁻¹ |  |  |  |  |  |  | 0.38 µg/mL | 0.0261 µg/mL | 0.03 µg/mL | 0.04 µg/mL |  |  |  |
| clone 23 rabbit anti-IL-6R antibody (antibody, V domains shown) VH: QSLEESGGRLVTPGTPLTLTCTVSGIDLSRYWMSWVRQAPGKGLEWIGMISGGNTWYASWAKGRFTISKTSTTVDLKITSPTTEDTATYFCARGIDTGIATTFNLWGPGTLVTVSS VL: AQVLTQTPSSVSTAVGGTVTISCQSSQNVYNNNRLSWFQQKPGQPPKLLIYYTSTLPSGVPSRFKGSGSGTQFTLTISDLECDDAATYYCQGYYSGVINVFGGGTEVVVK |  |  |  |  |  |  |  |  |  | 0.38 µg/mL | 0.0263 µg/mL | 0.07 µg/mL | 0.07 µg/mL |  |  |  |
| clone 37 rabbit anti-IL-6R antibody (antibody, V domains shown) VH: QSLEESGGRLVTPGTPLTLTCTVSGIDLSRYWMSWVRQAPGKGLEWIGMISGGNTWYASWAKGRFTISGTSTTVDLKIISPTTADTATYFCARGIDTGIATTFNLWGPGTLVTVSS VL: AQVLTQTPSSVSAAVGGTVTISCQSSQSVYSNNRLSWFQQKPGQPPKLLIYYTSTLASGVPSRFKGSGSGTQFTLTISDLECDDAATYYCQGYYSGVINVFGGGTEVVVK |  |  |  |  |  |  |  |  |  | 0.39 µg/mL | 0.0331 µg/mL | 0.09 µg/mL | 0.05 µg/mL |  |  |  |
| clone 40 rabbit anti-IL-6R antibody (antibody, V domains shown) VH: QSLEESGGRLVSPGGSLTLTCTVSGVDLNTYAMGWVRQAPGKGLECIGVILGSGTTYYANWAKGRFTISKTSSTTVDLKMTNLTAADTATYFCAGDRYGSLEEVITPYFDLWGPGILVTVSS VL: DVVMTQTPASVEAAVGGTVTIKCQASQNIYNNLAWYQQKPAQPPKLLIYSASTLESGVPSRFKGSGSGTGYTLTISDLECADAATYYCQSAYYTSYIDHNVFGGGTEVVVE |  |  |  |  |  |  |  |  |  | 1.36 µg/mL | 0.0573 µg/mL | 0.02 µg/mL | 0.02 µg/mL |  |  |  |
| clone 42 rabbit anti-IL-6R antibody (antibody, V domains shown) VH: QSVEESGGRLVTPGTPLTLTCTVSGFSLSNYWMSWVRQAPGKGLEWIAFIGGGNTFYASWAKGRFTISKTSSTTVDLSMPSPTTEDTATYFCARGYGAPGYDLWGQGTLVTVSL VL: AIVMTQTPSSKSVPVGDTVTINCQASESVYTNNRLSWYQQKPGQPPKLLIYYASTLASGVPSRFKGSGSGTQFTLTISDVVCDNAATYYCVGYKSSDGDGTAFGGGTEVVVK |  |  |  |  |  |  |  |  |  | 0.34 µg/mL | 0.0961 µg/mL | 0.03 µg/mL | 0.04 µg/mL |  |  |  |

Source: patent US20120225060A1 (APEXIGEN, published 2012)
